In PMC10397247:
Values belong to the binder of their own block, whether it stands above or below them.

Tests used:
Core_NNIN-es_KEKE = molecular target: T1, Core_NNIN-es_KEKE; assay: two-hybrid library CCmax; conditions: mean of both orientations;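 note: natural log of median RNA to DNA barcode read ratio; higher means stronger binding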
T1 chain: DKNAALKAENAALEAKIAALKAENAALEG

Core_NINN-es_KKKE = molecular target: T2, Core_NINN-es_KKKE; assay: two-hybrid library CCmax; conditions: mean of both orientations;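 note: natural log of median RNA to DNA barcode read ratio; higher means stronger binding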
T2 chain: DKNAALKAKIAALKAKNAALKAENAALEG

4H2619-bN = molecular target: T3, 4H2619-bN; assay: two-hybrid library CCNG1;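 note: natural log of median RNA to DNA barcode read ratio; higher means stronger binding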
T3 chain: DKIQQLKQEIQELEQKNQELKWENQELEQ

4H3632-bN = molecular target: T4, 4H3632-bN; assay: two-hybrid library CCNG1;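 note: natural log of median RNA to DNA barcode read ratio; higher means stronger binding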
T4 chain: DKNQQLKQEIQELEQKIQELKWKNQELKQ

4H3070-bN = molecular target: T5, 4H3070-bN; assay: two-hybrid library CCNG1;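 note: natural log of median RNA to DNA barcode read ratio; higher means stronger binding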
T5 chain: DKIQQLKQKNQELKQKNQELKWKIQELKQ

4H1347-bN = molecular target: T6, 4H1347-bN; assay: two-hybrid library CCNG1;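 note: natural log of median RNA to DNA barcode read ratio; higher means stronger binding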
T6 chain: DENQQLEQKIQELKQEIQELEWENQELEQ

4H2691-bN = molecular target: T7, 4H2691-bN; assay: two-hybrid library CCNG1
T7 chain: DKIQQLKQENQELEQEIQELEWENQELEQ

4H145-bN = molecular target: T8, 4H145-bN; assay: two-hybrid library CCNG1
T8 chain: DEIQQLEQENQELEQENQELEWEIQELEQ

4H496-bN = molecular target: T9, 4H496-bN; assay: two-hybrid library CCNG1
T9 chain: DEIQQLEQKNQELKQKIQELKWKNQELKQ

4H342-bN = molecular target: T10, 4H342-bN; assay: two-hybrid library CCNG1
T10 chain: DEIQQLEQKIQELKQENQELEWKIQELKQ

O15-bN = molecular target: T11, O15-bN; assay: two-hybrid library CCNG1
T11 chain: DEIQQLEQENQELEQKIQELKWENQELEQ

O10-bN = molecular target: T12, O10-bN; assay: two-hybrid library CCNG1
T12 chain: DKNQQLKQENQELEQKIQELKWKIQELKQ

O7-bN = molecular target: T13, O7-bN; assay: two-hybrid library CCNG1
T13 chain: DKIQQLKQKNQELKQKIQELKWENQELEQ

O12-bN = molecular target: T14, O12-bN; assay: two-hybrid library CCNG1
T14 chain: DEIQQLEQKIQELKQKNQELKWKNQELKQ

O13-bN = molecular target: T15, O13-bN; assay: two-hybrid library CCNG1
T15 chain: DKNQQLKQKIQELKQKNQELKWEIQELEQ

O2-bN = molecular target: T16, O2-bN; assay: two-hybrid library CCNG1
T16 chain: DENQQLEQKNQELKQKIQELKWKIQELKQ

O1-bN = molecular target: T17, O1-bN; assay: two-hybrid library CCNG1
T17 chain: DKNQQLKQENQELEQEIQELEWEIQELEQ

O5-bN = molecular target: T18, O5-bN; assay: two-hybrid library CCNG1
T18 chain: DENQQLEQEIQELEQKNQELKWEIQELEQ

O8-bN = molecular target: T19, O8-bN; assay: two-hybrid library CCNG1
T19 chain: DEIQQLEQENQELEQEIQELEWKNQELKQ

O6-bN = molecular target: T20, O6-bN; assay: two-hybrid library CCNG1
T20 chain: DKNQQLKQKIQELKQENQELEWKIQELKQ

O11-bN = molecular target: T21, O11-bN; assay: two-hybrid library CCNG1
T21 chain: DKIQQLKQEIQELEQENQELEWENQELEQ

O14-bN = molecular target: T22, O14-bN; assay: two-hybrid library CCNG1
T22 chain: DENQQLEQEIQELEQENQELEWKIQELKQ

O3-bN = molecular target: T23, O3-bN; assay: two-hybrid library CCNG1
T23 chain: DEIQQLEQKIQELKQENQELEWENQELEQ

O4-bN = molecular target: T24, O4-bN; assay: two-hybrid library CCNG1
T24 chain: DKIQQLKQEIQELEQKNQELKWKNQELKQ

O16-bN = molecular target: T25, O16-bN; assay: two-hybrid library CCNG1
T25 chain: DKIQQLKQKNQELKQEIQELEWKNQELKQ

O9-bN = molecular target: T26, O9-bN; assay: two-hybrid library CCNG1
T26 chain: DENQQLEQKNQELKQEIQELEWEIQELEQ

Core_IINI-es_KKEK = molecular target: T27, Core_IINI-es_KKEK; assay: two-hybrid library CCmax; conditions: mean of both orientations
T27 chain: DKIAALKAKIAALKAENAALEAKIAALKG

interaction score (Core_NNIN-es_KEKE): 1.67
B1: Core_NNIN-es_EKEK (peptide)
chain: DENAALEAKNAALKAEIAALEAKNAALKG

interaction score (Core_NINN-es_KKKE): 2.16
B2: Core_NINN-es_EEEK (peptide)
chain: DENAALEAEIAALEAENAALEAKNAALKG

interaction score (4H2619-bN): -1.17 | interaction score (4H3632-bN): 1.6 | interaction score (4H3070-bN): 0.122 | interaction score (4H1347-bN): -0.341 | interaction score (4H2691-bN): -0.113 | interaction score (4H145-bN): -0.341 | interaction score (4H496-bN): -0.299 | interaction score (4H342-bN): -0.286
B3: 4H1347-bN (peptide)
chain: DENQQLEQKIQELKQEIQELEWENQELEQ

interaction score (O15-bN): -1.32 | interaction score (O10-bN): -0.61 | interaction score (O7-bN): -1.34 | interaction score (O12-bN): -1.46 | interaction score (O13-bN): -1.14 | interaction score (O2-bN): 2 | interaction score (O1-bN): -0.57 | interaction score (O5-bN): -1.54 | interaction score (O8-bN): -0.836 | interaction score (O6-bN): -1.45 | interaction score (O11-bN): -1.2 | interaction score (O14-bN): -1.24 | interaction score (O3-bN): -2.11 | interaction score (O4-bN): -0.922 | interaction score (O16-bN): -1.9 | interaction score (O9-bN): -1.9
B4: O1-bN (peptide)
chain: DKNQQLKQENQELEQEIQELEWEIQELEQ

interaction score (Core_IINI-es_KKEK): 2.32
B5: Core_IINI-es_EEKE (peptide)
chain: DEIAALEAEIAALEAKNAALKAEIAALEG
